The values that follow come from paper PMC4891106.

The assay addresses Cbl (UniProt P22681). Briefly: anti-CD93 co-IP, anti-Cbl blot. To be noted: reference: wild type CD93 (res85); sites Y628,Y644.

Turning to “CD93 (from UniProt Q9NPY3) Y628F/Y644F (res85Y1Y2)”, the “binding against the reference” value was “lost”.
